Source: article PMC9023255, “Mechanisms of substrate recognition and N6-methyladenosine demethylation revealed by crystal structures of ALKBH5–RNA complexes”

Target: ALKBH5 74-292 (human, UniProt Q6P6C2 74-292)
Assay: X-ray crystallography; Mn2+, sulfate in 2OG site (NOG added but not observed); 2.1 A, P32; GG(m6A)C ordered; Complex formation: 25 mM Tris pH 7.5, 400 uM protein, 333 uM RNA, 2 mM MnCl2, 2 or 10 mM NOG or 10 mM 2OG, on ice 30 min, then SEC in 25 mM Tris pH 7.5; mutant
Conditions: protein: recombinant; tags: N-terminal His6, removed by TEV protease; single strand

Sequence of ALKBH5 74-292 (Q6P6C2 74-292): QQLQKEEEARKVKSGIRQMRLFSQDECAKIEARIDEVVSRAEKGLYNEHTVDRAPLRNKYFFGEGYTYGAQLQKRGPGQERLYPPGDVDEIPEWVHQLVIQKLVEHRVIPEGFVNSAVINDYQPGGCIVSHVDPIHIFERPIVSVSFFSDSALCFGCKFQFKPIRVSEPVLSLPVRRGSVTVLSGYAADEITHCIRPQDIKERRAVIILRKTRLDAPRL

B1: 8-mer m6A ssRNA (ssRNA)
RNA: UGGACUGC
modifications: N6-methyladenosine at position 4 (m6A)
B1: binds.
